Target: the molecule itself
Test: SEC

B1: His6-MBP-UvrC fusion protein (holo form, with [4Fe4S] cluster) (enzyme, E. coli, UniProt P0A8G0 1-610, looked up)
chain: MSDQFDAKAFLKTVTSQPGVYRMYDAGGTVIYVGKAKDLKKRLSSYFRSNLASRKTEALVAQIQQIDVTVTHTETEALLLEHNYIKLYQPRYNVLLRDDKSYPFIFLSGDTHPRLAMHRGAKHAKGEYFGPFPNGYAVRETLALLQKIFPIRQCENSVYRNRSRPCLQYQIGRCLGPCVEGLVSEEEYAQQVEYVRLFLSGKDDQVLTQLISRMETASQNLEFEEAARIRDQIQAVRRVTEKQFVSNTGDDLDVIGVAFDAGMACVHVLFIRQGKVLGSRSYFPKVPGGTELSEVVETFVGQFYLQGSQMRTLPGEILLDFNLSDKTLLADSLSELAGRKINVQTKPRGDRARYLKLARTNAATALTSKLSQQSTVHQRLTALASVLKLPEVKRMECFDISHTMGEQTVASCVVFDANGPLRAEYRRYNITGITPGDDYAAMNQVLRRRYGKAIDDSKIPDVILIDGGKGQLAQAKNVFAELDVSWDKNHPLLLGVAKGADRKAGLETLFFEPEGEGFSLPPDSPALHVIQHIRDESHDHAIGGHRKKRAKVKNTSSLETIEGVGPKRRQMLLKYMGGLQGLRNASVEEIAKVPGISQGLAEKIFWSLKH
stoichiometry N: 2
